From patent publication US20120316071A1 (published 2012) come the findings set out here.

Test [1] has as its target T1, rHuman Erythropoietin R/Fc Chimera, CF (R&D Systems Cat#963-ER) (human, UniProt P19235 25-250).
T1 construct: Bought reagent; also called EPO R; EPO R/Fc; Fc part of the bought chimera not given
T1 sequence (looked up): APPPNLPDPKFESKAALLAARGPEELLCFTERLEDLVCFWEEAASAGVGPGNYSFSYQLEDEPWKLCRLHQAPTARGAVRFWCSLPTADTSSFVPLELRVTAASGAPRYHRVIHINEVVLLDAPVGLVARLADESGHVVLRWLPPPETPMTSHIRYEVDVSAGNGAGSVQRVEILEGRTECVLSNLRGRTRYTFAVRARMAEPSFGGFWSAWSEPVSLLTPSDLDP
In words: ECL Multispot (MSD) assay, antigen spotted on plate, 10 nM Fab; blank spot of this row 182.

The target of test [2] is T2, rHuman P-Cadherin/Fc Chimera, CF (R&D Systems Cat#861-PC) (human, UniProt P22223 108-654).
T2 construct: Bought reagent; Fc part of the bought chimera not given
Described as above.

Test [3] concerns the target T3, rHuman ErbB2/Fc Chimera, CF (R&D Systems Cat#1129-ER) (human, UniProt P04626 23-652).
T3 construct: Bought reagent; also called human epidermal growth factor 2 receptor; Fc part of the bought chimera not given
The test is described as above.

Test [4] has as its target T4, rHuman HGF R/c-MET/Fc Chimera, CF (R&D Systems Cat#358-MT/CF) (human, UniProt P08581 25-932).
T4 construct: Bought reagent; also called HGF R/Fc; hepatocyte growth factor receptor; Fc part of the bought chimera not given
The test is described as above.

In test [5] the target is T5, rHuman Notch-1/Fc Chimera, CF (R&D Systems Cat#3647-TK) (human, UniProt P46531 19-526).
T5 construct: Bought reagent; Fc part of the bought chimera not given
Described as above.

The target in test [6] is T6, rHuman EGF R/Fc Chimera, CF (R&D Systems Cat#344-ER) (human, UniProt P00533 25-645).
T6 construct: Bought reagent; also called epidermal growth factor receptor; Fc part of the bought chimera not given
The test is described as above.

Test [7] addresses T7, rHuman CD44/Fc Chimera, CF (R&D Systems Cat#3660-CD) (human, UniProt P16070 21-220).
T7 construct: Bought reagent; Fc part of the bought chimera not given
The description is as above.

Test [8] deals with T8, rHuman IGF-1 sR, CF (R&D Systems Cat#391-GR) (human, UniProt P08069 31-932).
T8 construct: Bought soluble receptor; The column head prints only 'IGF-1'; also called insulin-like growth factor-1 soluble receptor
The description is as above.

Test [9] addresses T9, rHuman P-Cadherin/Fc Chimera, CF (R&D Systems Cat#861-PC) (human, UniProt P22223 108-654).
T9 construct: Bought Fc chimera; Fc part of the bought chimera not given
The test is described as follows: MSD Multispot ECL, antigen spotted on plate, Fab at 120 nM; blank spot 363.

For test [10], the target named is T10, rHuman ErbB2/Fc Chimera, CF (R&D Systems Cat#1129-ER) (human, UniProt P04626 23-652).
T10 construct: Bought recombinant protein; also called human epidermal growth factor 2 receptor; Fc part of the bought chimera not given
The test is described as follows: MSD multispot ECL, antigen spotted on plate; Fab 0.00797 uM; blank spot 364.

Test [11] concerns the target T11, rHuman IGF-1 sR, CF (R&D Systems Cat#391-GR) (human, UniProt P08069 31-932).
T11 construct: Bought recombinant soluble receptor; also called insulin-like growth factor-1 soluble receptor
Described as above.

In test [12] the target is T12, Recombinant Human DLL4 (R&D Systems Cat#1506-D4/CF) (human, UniProt Q9NR61 27-524).
T12 construct: Bought recombinant protein; also called delta-like protein 4; rHuman DLL4
The description is as above.

The target of test [13] is T13, rHuman HGF R/c-MET/Fc Chimera, CF (R&D Systems Cat#358-MT/CF) (human, UniProt P08581 25-932).
T13 construct: Bought recombinant protein; also called HGF R/Fc; hepatocyte growth factor receptor; Fc part of the bought chimera not given
Described as above.

The target in test [14] is T14, rHuman Erythropoietin R/Fc Chimera, CF (R&D Systems Cat#963-ER) (human, UniProt P19235 25-250).
T14 construct: Bought recombinant protein; also called EPO R/Fc; Epo R; Fc part of the bought chimera not given
T14 sequence (looked up): T1 sequence (looked up)
Described as above.

The target in test [15] is T15, rHuman EGF R/Fc Chimera, CF (R&D Systems Cat#344-ER) (human, UniProt P00533 25-645).
T15 construct: Bought recombinant protein; also called epidermal growth factor receptor; Fc part of the bought chimera not given
The description is as above.

Test [16] deals with T16, rHuman P-Cadherin/Fc Chimera, CF (R&D Systems Cat#861-PC) (human, UniProt P22223 108-654).
T16 construct: Bought recombinant protein; Fc part of the bought chimera not given
The test is described as above.

Test [17] deals with T17, rHuman Notch-1/Fc Chimera, CF (R&D Systems Cat#3647-TK) (human, UniProt P46531 19-526).
T17 construct: Bought recombinant protein; Fc part of the bought chimera not given
The test is described as above.

The target of test [18] is T18, rHuman CD44/Fc Chimera, CF (R&D Systems Cat#3660-CD) (human, UniProt P16070 21-220).
T18 construct: Bought recombinant protein; Fc part of the bought chimera not given
Described as above.

B1: Fab VH1-46_IGHD6-6*01_IGHJ1*01 S102A/S103P/S104F (APF) & L6_IGKJ1*01 (Fab, V domains shown)
VH: QVQLVQSGAEVKKPGASVKVSCKASGYTFTSYYMHWVRQAPGQGLEWMGIINPSGGSTSYAQKFQGRVTMTRDTSTSTVYMELSSLRSEDTAVYYCAREEYAPFSAEYFQHWGQGTLVTVSS
VL: not shown
notes: Tested as a Fab made in E. coli; also called H:APF & L:wt; APF triple mutant
With B1, the ECL signal in test [1] was found to be 222; in test [2], 449; in [3], 221; in test [4], 319; in test [5], 251; in test [6] it was 296. For the same molecule, the ECL signal worked out at 221 in test [7] and 344 in test [8].

B2: Fab VH6-1_IGHD3-3*01_IGHJ4*01 & V4-3_IGLJ4*01 (Fab, V domains shown)
VH: QVQLQQSGPGLVKPSQTLSLTCAISGDSVSSNSAAWNWIRQSPSRGLEWLGRTYYRSKWYNDYAVSVKSRITINPDTSKNQFSLQLNSVTPEDTAVYYCAREYYDFWSGYYTDYFDYWGQGTLVTVSS
VL: QPVLTQPTSLSASPGASARLTCTLRSGINLGSYRIFWYQQKPESPPRYLLSYYSDSSKHQGSGVPSRFSGSKDASSNAGILVISGLQSEDEADYYCMIWHSSASFVFGGGTQLIIL
notes: Tested as a purified germline Fab made in E. coli; The VH was cloned into plasmid A (CH1 constant region, His6 and Flag tags) and the lambda VL into plasmid E (lambda CL)
The molecule B2 displayed an ECL signal in test [9] of 450.

B3: Fab VH4-34_IGHD7-27*01_IGHJ4*01 & L5_IGKJ1*01 (Fab, V domains shown)
VH: QVQLQQWGAGLLKPSETLSLTCAVYGGSFSGYYWSWIRQPPGKGLEWIGEINHSGSTNYNPSLKSRVTISVDTSKNQFSLKLSSVTAADTAVYYCARANWGDYFDYWGQGTLVTVSS
VL: DIQMTQSPSSVSASVGDRVTITCRASQGISSWLAWYQQKPGKAPKLLIYAASSLQSGVPSRFSGSGSGTDFTLTISSLQPEDFATYYCQQANSFPPWTFGQGTKVEIKR
notes: Germline library Fab expressed in E. coli; VH was cloned into Plasmid A, which adds CH1 with His6 and Flag tags
For B3, the ECL signal was found to be 493 in test [10]; 564 in test [11]; 872 in [12]; 419 in test [13]; 566 in test [14]; 530 in test [15]. For the same molecule, the ECL signal in test [16] was 502; in test [17] it was 654; in [18], 490.
